Source: patent US5861501

Test system: influenza endonuclease (purified viral ribonucleoprotein, low-pH treated; polymerase-associated cap-dependent endonuclease) (Influenza virus)
Experiment: competition
Conditions: 5'-triphosphate; 2'-OMe on G1; 3'-terminal 3'-dA; filter retention competition; binding is cap dependent; scale: % of labeled capped 10-mer binding competed at up to 150 nM

“GUAUUAAUAA [5'-triphosphorylated 10-mer (uncapped)]” was tested. Which binding signal did it give?
Its binding signal is 10.
